# Laboratory results: patent US4839466A, “Insulin activity messengers” (The Rockefeller University, priority 1987, dated 1989)
# B1: PI-PLC: purified phosphatidylinositol specific phospholipase C from S. aureus (protein, UniProt P45723 27-312, looked up)
# 1-phosphatidylinositol …: DGKHLTEINIPGSHDSGSFTLKDPVKSVWAKTQDKDYLTQMKSGVRFFDIRGRASADNMISVHHGMVYLHHELGKFLDDAKYYLSAYPNETIVMSMKKDYDSDSKVTKTFEEIFREYYYNNPQYQNLFYTGSNANPTLKETKGKIVLFNRMGGTYIKSGYGADTSGIQWADNATFETKINNGSLNLKVQDEYKDYYDKKVEAVKNLLAKAKTDSNKDNVYVNFLSVASGGSAFNSTYNYASHINPEIAKTIKANGKARTGWLIVDYAGYTWPGYDDIVSEIIDSNK
# Legend:
# PI-glycan PLC = assay: Effects of cations and sulfhydryl reagents on PI-glycan PLC (mfVSG hydrolysis); assay type: biochemical, rat; settings: 25 nM mfVSG, 2 hr at 37° C.; for Activity (dpm/2 hr): no addition 3970
# Protocol: Assay of PI-glycan PLC Activity. Enzyme activity was assayed at 37° C. in a final volume of 1 ml with [^3 H]myristate-labeled C-terminal glycopeptide in 25 mM Tris, pH 7.4, with 0.1% NP-40. The reaction was terminated after 1 hr. by extraction with 1 ml toluene. Organic and aqueous phases were separated by brief centrifugation at 100 ×g and the organic phase was taken to dryness in vacuo, redissolved in 40 ul of chloroform:methanol (2:1) containing 5 ug dimyristylglycerol, and spotted on a Silica G TLC plate which had been preactivated by baking at 125° C. for 1-2 hr. The plate was developed twice in petroleum ether:diethyl ether:acetic acid (70:30:2) and then stained with iodine vapor to localize DAG. The DAG region was scraped and counted. Alternatively, 0.5 ml of the organic phase was taken directly for liquid scintillation counting.
# Samples from each stage of the purification were incubated in 1 ml with 25 nM [3H]mfVSG for 2 hr at 37° C. and then extracted twice with 1 ml chloroform:methanol (200:1). The organic phases were taken to dryness and analyzed by TLC as described under Experimental Procedures. Each assay was performed in duplicate and was consistant within 10%.
# Purified PI-glycan PLC was incubated with 25 nM mfVSG in the presence of the indicated reagents for 2 hr at 37° C. Enzyme activity was assayed as described for Table VIII. All assays were performed in duplicate variance was less than 10%.
# BC3 Hl cells = assay: Diacylglycerol and phosphatidic acid production in labeled BC3 Hl myocytes; assay type: cell-based, murine
# Protocol: FIG. 12--Time Course of Diacylglycerol and Phosphatidic Acid Production in Response to Insulin. Myocytes were incubated for 20 hrs. in serum free DMEM with [9,10^3 H]myristic acid (New England Nuclear), complexed 1:1 to bovine serum albumin. Insulin was added to cells in fresh media for the designated intervals, and reactions were stopped by removal of media and addition of 1 ml chloroform/methanol/1N HCl (200:100:1). 0.6ml H2 O was added and upper aqueous phases were discarded following centrifugation at 500×g for 5 minutes. The lower, organic phases were dried under N2 and resuspended in 1 ml diethyl ether followed by addition of 1 […]. The upper ether phase was aspirated and the lower phase reextracted with 1 ml diethyl ether. The combined ether phases, containing diacylglycerol, were dried under N2, resuspended in chloroform and spotted on silica gel G plates which were preactivated at 60° C. for 1 hr. Plates were twice developed in petroleum ether/diethyl ether/glacial acetic acid (70:30:2). Five ug of unlabeled dimyristoylglycerol were added to each sample. Spots were visualized by iodine staining. To the lower aqueous phases from the ether extraction were added 1 ml of chloroform/methanol (2:1). Following centrifugation, the resulting upper aqueous phases were discarded and the lower organic phases dried under N2, resuspended in chloroform/methanol/H2 O (9:7:2) and spotted on "soft plus" silica gel plates. These were developed in chloroform/pyridine/70% formic acid (50:30:7), and phosphatidic acid was identified by an iodine stained standard. Lipids were scraped and radioactivity determined in a liquid scintillation counter.
# BC3 Hl cells were cultured on collagen coated multiwell plates or petri dishes in Dulbecco's minimal essential medium (DMEM) supplemented with 20% Nu serum or 10% fetal calf serum. Cells were grown to maximal density and confluence, at which time they become responsive to insulin. Radiolabeled precursors were added for 20 hrs. in serum-free medium. [^3 H]Myristic and arachidonic acids were complexed 1:1 to bovine serum albumin prior to addition.
# Following preincubations with the appropriate isotopes, cells were resuspended in DMEM without serum and treated with 10 nM insulin at the designated intervals. Reactions were terminated by the addition of 1 ml chloroform/methanol/1N HCl (200:100:1), followed by 0.5 ml 10 mM formic acid. Following centrifugation at 500 x g for 5 min., the upper phase was discarded. For phospholipid analyses, the lower, organic phase was dried under N2, resuspended in chloroform/methanol/H2 O (9:7:2) and spotted on oxalate impregnated silica gel G plates. These were sequentially developed in chloroform/acetone/methanol/glacial acidic acid/H2 O (10:4:2:2:1) and chloroform/methanol/4N NH4 OH (45:35:10). One cm regions were scraped and eluted with chloroform/methanol (2:1) and counted. Phosphoinositide standards were identified by iodine staining.
# For analysis of neutral lipids, the chloroform/methanol organic phases were dried under N2 and resuspended in 1 ml diethyl ether followed by addition of 1 ml 50 mM formic acid. The upper ether phase was aspirated and the lower aqueous phase was reextracted with 1 ml diethyl ether. The pooled ether phases were dried under N2, resuspended in chloroform and spotted on silica gel G plates which were preactiviated at 60° C. for 1 hr. Plates were twice developed in petroleum ether/diethyl ether/glacial acetic acid (70:30:2). Five ug of unlabeled dimyristoyl glycerol, myristic acid and monomyristoyl glycerol were added as carriers to each sample.
# cAMP phosphodiesterase [1] = assay: Generation of PDE messenger from liver membranes by insulin or PI-PLC; extracts assayed on cAMP phosphodiesterase; assay type: biochemical, rat
# Protocol: These were generated from bovine liver particulate fractions by a modification of previously described methods. Particulate fraction was prepared from 100 g of bovine liver, and suspended in […] ammonium bicarbonate, pH 7.4. (Buffer A) at a final concentration of 2-4 mg protein/ml. This solution was incubated with […] for 10 min at 37° C., acidified to pH 4.0 with formic acid and sedimented at 45,000 g for 20 min. An equal volume of chloroform/methanol (2:1) was added to the supernatant, and the upper phase was aspirated and methanol was evaporated.
# In the tests the results of which are tabulated above, liver membranes were treated as indicated for 10 min at 37° C., centrifuged and supernatants were extracted and purified up to and including the Dowex 50WX-4 step as described earlier herein under "Experimental Frocedures".
# Partially purified extracts were assayed for ability to modulate cAMP phosphodiesterase. Basal activity was 56.2 pmoles/mg protein^-1 -min^-1.
# [2] = PI-PLC treatment of lipids extracted from labeled BC3 Hl cells, TLC; assay type: biochemical, murine; settings: PI-PLC 30 min.
# Protocol: FIG. 8--SAX HPLC of Radiolabeled Mediators Produced by PI-PLC. Cells were prelabeled as described in FIG. 7, extracted in chloroform/methanol/1N HCl (200:100:1) and centrifuged at 1000 x g for 10 min. The supernatant was dried under N2 and resuspended in 1 mil of 50 mM ammonium bicarbonate, pH 7.4. These solutions were treated with 0.1 ug/ml PI-PLC from S. aureus for 30 min. at 37° C. Reactions were terminated by reextraction with 1 ml of chloroform/methanol/1N HCl (200:100:1) and aqueous and organic phases separated. The aqueous phases were then purified as described in FIG. 7 and chromatographed on SAX HPLC column, eluted as described.
# FIG. 10--Thin Layer Chromatography of the Radiolabeled Precursor After PI-PLC Treatment. Cells were labeled, extracted, treated with or without PI-PLC and reextracted as described in FIG. 8. Organic phases were chromatographed on thin layer plates as detailed in FIG. 9.
# cAMP phosphodiesterase [3] = assay: Generation of an enzyme modulator from liver plasma membranes, cAMP phosphodiesterase readout; assay type: biochemical, rat
# Protocol: (§1) Purification of the Enzyme Modulator. Bovine liver particulate fraction was prepared as described previously [Saltiel A. R., (1984) "Preparation and Characterization of Putative Insulin Mediators from Liver", METHODS IN DIABETES […], eds. J. Larner, S. Pohl, I:73]. Solutions were incubated in 5 mM ammonium bicarbonate, pH 7.4 with 10 nM insulin or 1 ug/ml PI-PLC as described in the figure legends. Following incubation, solutions were acidified to pH 4.0 and centrifuged at 35,000 x g for 20 minutes. Resulting supernatants were extracted with chloroform/methanol (2:1). The upper aqueous phase was aspirated and methanol was evaporated. Enzyme modulating activities were purified as described in Publication No. 6 listed earlier herein. Briefly, the extract was chromatographed on DEAE-Cellulose and eluted with 0.25M triethylamine (TEA)-formate, pH 3.75. This was followed by chromatography on C-18 reversed phase resin, in the same buffer, followed by Dowex 50W X-4 in 50 mM TEA-formate, pH 3.0. The resulting eluate was lyophilized, resuspended in 50 mM TEA-formate, pH 4.5 and sequentially chromatographed on QAE-Sephadex, SAX HPLC and a P-2 gel filtration column. Only the cyclic inositol phosphate derivative residing in Peak I was examined.
# (§2) Enzyme Assays. The low Km cAMP PDE was assayed in a rat adipocyte particulate fraction as previously described [Saltiel, A. R., Steigerwalt,R. W., (1986) "Purification of Putative Insulin-Sensitive cAMP Phosphodiesterase or its Catalytic Domain From Rat Adipocytes", DIABETES, 35:698] and as later modified in Publication No. 6. Activity was linear throughout 20 min. and proportional to protein concentration. Only the low Km species of the enzyme was present in this fraction. PDH activity was assayed in liver mitoplasts after preincubation with ATP as previously described [Saltiel et al., (1982) PROC. NATL. ACAD. SCI. U.S.A., 79:3513.]. Adenylate cyclase activity was also assayed in purified adipocyte plasma membranes. For all enzyme assays, variability was less than 5%.
# (§3) Liver membranes were treated with or without 10 nM insulin or 1 ug/ml PI-PLC for 10 min. at 37° C. Following cetrifugation, the supernatants were extracted and purified up to and including the SAX HPLC step. Purified extracts were added to enzyme assays at a final dilution of 1:10. Enzyme activities were assayed with no additions or after addition of purified extracts from control, insulin or PIPPLC treated membrane. Percent of basal activity is expressed in parentheses. ^1 expressed as pmoles/mg protein-min. ^2 expressed as nmoles/mg protein-min.
# Pyruvate Dehydrogenase = assay: Generation of an enzyme modulator from liver plasma membranes, pyruvate dehydrogenase readout; assay type: biochemical, rat
# Protocol: as §1, §2, §3
# Adenylate Cyclase = assay: Generation of an enzyme modulator from liver plasma membranes, adenylate cyclase readout; assay type: biochemical, rat
# Protocol: as §1, §2, §3
# [4] = cells incubated with [3H]arachidonic acid
molecule,measurement,setting,value
OCCS [2-mercaptoethanol],% control,PI-glycan PLC; addition at 50 mM,190 % control
same,Activity (dpm/2 hr),PI-glycan PLC; addition at 50 mM,7564 dpm/2 hr
O=C(O)CN(CCOCCOCCN(CC(=O)O)CC(=O)O)CC(=O)O [EGTA],% control,PI-glycan PLC; addition at 100 uM,148 % control
same,Activity (dpm/2 hr),PI-glycan PLC; addition at 100 uM,5900 dpm/2 hr
[Cl][Hg][Cl] [HgCl2],% control,PI-glycan PLC; addition at 100 uM,17 % control
same,Activity (dpm/2 hr),PI-glycan PLC; addition at 100 uM,677 dpm/2 hr
CNC[C@H](O)c1ccc(O)c(O)c1 [epinephrine],change in [3H]myristoyl diacylglycerol,BC3 Hl cells; [3H]myristate labeled cells,no significant change
same,change in [3H]arachidonyl diacylglycerol,BC3 Hl cells; [4],rapid increase
same,time of maximal increase in [3H]arachidonyl diacylglycerol,BC3 Hl cells; [4],1 min
B1,stimulation/increase of production of PDE modulating activity from membranes,"cAMP phosphodiesterase [1]; after partial purification, PI-PLC 1.0 ug/ml",6 fold
same,PDE Activity,"cAMP phosphodiesterase [1]; extract of liver membranes treated 10 min at 37° C. (1.0 nM Insulin, PI-PLC), purified up to Dowex 50WX-4, basal 56.2, untreated membranes 78.5",191.3 pmol mg protein^-1 min^-1
same,decrease in [3H]glucosamine labeling of the precursor spot,[2],40%
same,decrease in [3H]inositol labeling of the precursor spot,[2],60%
same,depletion of PI,[2],50%
same,"cAMP Phosphodiesterase, percent of basal activity",cAMP phosphodiesterase [3]; as E41,311.1%
same,cAMP Phosphodiesterase activity,"cAMP phosphodiesterase [3]; extract of liver membranes treated with 10 nM insulin or 1 ug/ml PI-PLC 10 min. 37° C., purified to SAX HPLC, dilution 1:10, no addition 61.7±4.2, control membranes 78.5±5.6",192±5 pmoles/mg protein-min.
same,"Pyruvate Dehydrogenase, percent of basal activity",Pyruvate Dehydrogenase; as E43,296.6%
same,Pyruvate Dehydrogenase activity,"Pyruvate Dehydrogenase; extract as E41, no addition 1.77±0.07, control membranes 2.45±0.20",5.25±0.40 nmoles/mg protein-min.
same,"Adenylate Cyclase, percent of basal activity",Adenylate Cyclase; as E45,25.0%
same,Adenylate Cyclase activity,"Adenylate Cyclase; extract as E41, no addition 272±14, control membranes 210±4",68.7±7.6 pmoles/mg protein-min.
